The text below walks through data of paper PMC5645147, “Binding of a C-type lectin’s coiled-coil domain to the Domeless receptor directly activates the JAK/STAT pathway in the shrimp immune response to bacterial infection”.

The target in this series is T1, native STAT, LPS-challenged shrimp (Marsupenaeus japonicus (kuruma shrimp), UniProt D0VYJ1 1-801).
T1 sequence: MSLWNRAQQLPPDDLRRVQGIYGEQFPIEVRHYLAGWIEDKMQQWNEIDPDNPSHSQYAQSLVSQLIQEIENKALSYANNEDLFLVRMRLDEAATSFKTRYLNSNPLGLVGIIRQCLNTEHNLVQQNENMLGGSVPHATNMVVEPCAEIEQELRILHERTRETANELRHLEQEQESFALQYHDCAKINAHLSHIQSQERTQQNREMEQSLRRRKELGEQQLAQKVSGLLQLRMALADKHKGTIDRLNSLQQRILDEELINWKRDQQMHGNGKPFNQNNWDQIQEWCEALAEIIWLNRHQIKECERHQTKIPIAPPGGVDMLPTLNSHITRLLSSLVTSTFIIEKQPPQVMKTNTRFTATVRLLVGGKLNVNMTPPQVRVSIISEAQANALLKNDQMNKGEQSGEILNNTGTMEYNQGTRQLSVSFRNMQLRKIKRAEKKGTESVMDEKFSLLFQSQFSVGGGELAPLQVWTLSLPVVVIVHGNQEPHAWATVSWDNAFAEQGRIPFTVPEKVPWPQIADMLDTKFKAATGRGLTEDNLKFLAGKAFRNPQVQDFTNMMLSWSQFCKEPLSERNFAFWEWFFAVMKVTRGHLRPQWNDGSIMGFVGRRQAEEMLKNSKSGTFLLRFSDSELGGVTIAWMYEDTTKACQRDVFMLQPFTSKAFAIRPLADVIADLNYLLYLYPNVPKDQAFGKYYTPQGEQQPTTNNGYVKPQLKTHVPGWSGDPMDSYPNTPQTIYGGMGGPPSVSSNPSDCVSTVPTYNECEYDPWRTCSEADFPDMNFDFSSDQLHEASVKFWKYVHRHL
The series is described as follows: EMSA; STAT from LPS-injected shrimp; binding increased; 2 ug protein, 20 fmol Dig-probe, Beyotime EMSA binding buffer (from 5x; composition and pH not stated), 20 min with probe, room temperature (stated for competition); 6% PAGE, 0.5x TBE. The note with it: chain copies: 2, blunt.

B1: CruI-1 promoter STAT probe (dsDNA)
DNA 1: GCGTAAGGTTTTCTTGGAATA
DNA 2: TATTCCAAGAAAACCTTACGC
Regarding B1, the binding result is given as “binds”.
